From patent publication US20190248903A1 (Genentech, published 2019)

Tests used:
[1] = molecular target: T1, cynomolgus CLL-1 on cells (HEK293AD cells stably expressing recombinant cynoCLL-1) (cynomolgus monkey); assay: Scatchard analysis on 293AD/cynoCLL1 cells; 293AD/cynoCLL1 cells
T1 construct: also called 293AD/cynoCLL-1; 293AD/cynoCLL1
T1 chain: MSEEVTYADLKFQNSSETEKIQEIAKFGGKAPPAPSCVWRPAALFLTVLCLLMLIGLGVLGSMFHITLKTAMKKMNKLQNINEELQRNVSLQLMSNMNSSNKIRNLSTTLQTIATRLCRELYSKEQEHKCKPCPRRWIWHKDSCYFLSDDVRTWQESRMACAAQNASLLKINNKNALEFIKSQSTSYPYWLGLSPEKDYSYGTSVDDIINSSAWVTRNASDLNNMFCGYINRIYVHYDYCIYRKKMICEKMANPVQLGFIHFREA

[2] = molecular target: T1, cynomolgus CLL-1 on cells (HEK293AD …); assay: Scatchard analysis on 293AD/cynoCLL1 cells
Protocol: Competition assay mixtures of 50 μL volume containing a fixed concentration of [I¹²⁵] labeled antibody and decreasing concentrations of serially diluted, unlabeled antibody were placed into 96-well plates. HEK293AD cells stably expressing recombinant hu or cynoCLL-1 or HL-60 tumor cells expressing endogenous CLL-1 were cultured in growth media at 37° C. in 5% CO₂. Cells were detached from the flask using Sigma Cell Dissociation Solution and were washed with binding buffer, which consisted of Dulbecco's Modified Eagle Medium (DMEM) with 1% bovine serum albumin (BSA), […] and 0.1% sodium azide. The washed cells were added to the 96 well plates at a density of 100,000 cells in 0.2 mL of binding buffer. […] The final concentration of the unlabeled antibody in the competition assay ranged from 1000 nM through ten 2-fold dilution steps to a 0 nM buffer-only assay. Competition assays were carried out in triplicate. Competition assays were incubated for 2 hours at room temperature. […] The filters were counted on a Wallac Wizard 1470 gamma counter (PerkinElmer Life and Analytical Sciences Inc.; Wellesley, Mass.). The binding data was evaluated using NewLigand software (Genentech), which uses the fitting algorithm of Munson and Robard to determine the binding affinity of the antibody (Munson and Robard 1980).

Kd [1]: 670 pM | Kd [2]: 220 pM
B1: humanized 6E7.L4H1e (antibody, V domains shown)
VH: EVQLVQSGAEVKKPGASVKVSCKASGYSFTDYYMHWVRQAPGQGLEWIGRINPYNGAAFYSQNFKDRVTLTVDTSTSTAYLELSSLRSEDTAVYYCAIERGADLEGYAMDYWGQGTLVTVSS
VL: DIQMTQSPSSLSASVGDRVTITCRASQSVSTSSYNYMHWYQQKPGKPPKLLIKYASNLESGVPSRFSGSGSGTDFTLTISSLQPEDFATYYCQHSWEIPLTFGQGTKVEIK
notes: also called h6E7.L4H1e; 6E7.L4H1eN54
